{"source": "patent US20240376208A1", "about": "(AFFIMED, published 2024)", "binders": {"B1": {"name": "scFv-IgAb_18 (bispecific antibody)", "heavy": "EVQLLESGGGLVQPGGSLRLSCAASGFTFSNYDMAWVRQAPGKGLEWVSSISTRGDITSYRDSVKGRFTISRDNSKNTLYLQMNSLRAEDTAVYYCARQDYYTDYMGFAYWGQGTLVTVSSASTKGPSVFPLAPSSKSTSGGTAALGCLVKDYFPEPVTVSWNSGALTSGVHTFPAVLQSSGLYSLSSVVTVPSSSLGTQTYICNVNHKPSNTKVDKKVEPKSCDKTHTCPPCPAPEFEGGPSVFLFPPKPKDTLMISRTPEVTCVVVAVSHEDPEVKFNWYVDGVEVHNAKTKPREEQYNSTYRVVSVLTVLHQDWLNGKEYKCKVSNKALPAPIEKTISKAKGQPREPQVYTLPPSREEMTKNQVSLTCLVKGFYPSDIAVEWESNGQPENNYKTTPPVLDSDGSFFLYSKLTVDKSRWQQGNVFSCSVMHEALHNHYTQKSLSLSPGGGGGSGGGGSGGGGSGGGGSGGGGSGGGGSSYVLTQPSSVSVAPGQTATISCGGHNIGSKNVHWYQQRPGQSPVLVIYQDNKRPSGIPERFSGSNSGNTATLTISGTQAMDEADYYCQVWDNYSVLFGGGTKLTVLGGSGGSGGSGGSGGSGGSGGSQVQLVQSGAEVKKPGESLKVSCKASGYTFTSYYMHWVRQAPGQGLEWMGAIEPMYGSTSYAQKFQGRVTMTRDTSTSTVYMELSSLRSEDTAVYYCARGSAYYYDFADYWGQGTLVTVSS", "light": "AIQMTQSPSSLSASVGDRVTITCRASEDIYNGLAWYQQKPGKAPKLLIYGASSLQDGVPSRFSGSGSGTEFTLTISSLQPEDEATYYCAGPHKYPLTFGGGTKVEIKRTVAAPSVFIFPPSDEQLKSGTASVVCLLNNFYPREAKVQWKVDNALQSGNSQESVTEQDSKDSTYSLSSTLTLSKADYEKHKVYACEVTHQGLSSPVTKSFNRGEC"}, "B2": {"name": "scFv-IgAb_47 (bispecific antibody)", "heavy": "QVQLVQSGAEVKKPGESLKVSCKASGYTFTSYYMHWVRQAPGQGLEWMGAIEPMYGSTSYAQKFQGRVTMTRDTSTSTVYMELSSLRSEDTAVYYCARGSAYYYDFADYWGQGTLVTVSSASTKGPSVFPLAPSSKSTSGGTAALGCLVKDYFPEPVTVSWNSGALTSGVHTFPAVLQSSGLYSLSSVVTVPSSSLGTQTYICNVNHKPSNTKVDKKVEPKSCDKTHTCPPCPAPEFEGGPSVFLFPPKPKDTLMISRTPEVTCVVVAVSHEDPEVKFNWYVDGVEVHNAKTKPREEQYNSTYRVVSVLTVLHQDWLNGKEYKCKVSNKALPAPIEKTISKAKGQPREPQVYTLPPSREEMTKNQVSLTCLVKGFYPSDIAVEWESNGQPENNYKTTPPVLDSDGSFFLYSKLTVDKSRWQQGNVFSCSVMHEALHNHYTQKSLSLSPGGGGGSGGGGSQVQLQESGPGLVKPSETLSLTCTVSGGSVSSGSYYWSWIRQPPGKGLEWIGYIYYSGSTNYNPSLKSRVTISVDTSKNQFSLKLSSVTAADTAVYYCARNPISIPAFDIWGQGTMVTVSSGGSGGSGGSGGSGGSGGSQPVLTQPPSVSVAPGKTARITCGGNNIGSKSVHWYQQKPGQAPVLVIYYDSDRPSGIPERFSGSNSGNTATLTISRVEAGDEADYYCQVWDTSSDHVLFGGGTKLTVL", "light": "SYVLTQPSSVSVAPGQTATISCGGHNIGSKNVHWYQQRPGQSPVLVIYQDNKRPSGIPERFSGSNSGNTATLTISGTQAMDEADYYCQVWDNYSVLFGGGTKLTVLGQPKAAPSVTLFPPSSEELQANKATLVCLISDFYPGAVTVAWKADSSPVKAGVETTTPSKQSNNKYAASSYLSLTPEQWKSHRSYSCQVTHEGSTVEKTVAPTECS"}}, "key": {"[1]": {"target": "T1, biotinylated dimeric CD16A antigen (human, UniProt P08637 17-208, limits assumed, biotinylated (site not stated))", "T1 construct": "Soluble antigen; also called soluble CD16A antigen", "T1 sequence (P08637 17-208 limits assumed)": "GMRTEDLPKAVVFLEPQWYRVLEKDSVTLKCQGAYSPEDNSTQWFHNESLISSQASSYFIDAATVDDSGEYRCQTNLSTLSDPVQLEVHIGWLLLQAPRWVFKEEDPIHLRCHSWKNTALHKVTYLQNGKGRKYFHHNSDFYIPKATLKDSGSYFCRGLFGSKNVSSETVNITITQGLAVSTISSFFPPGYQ", "test": "ELISA, biotinylated dimeric CD16A titrated on coated construct", "method": "(§1) For the capturing approach, 96-well ELISA plates (Immuno Maxisorp, Nunc) were coated overnight at 4° C. with His-tagged human EGFR or BCMA extracellular domain at concentrations of 3.0 or 0.4 μg/mL, respectively. After blocking with 3% (w/v) skimmed milk powder dissolved in phosphate buffered saline (PBS), antigen coated plates were used for capturing of different multivalent bispecific engagers at concentrations of 3-5 μg/mL in PBS containing 0.3% (w/v) skimmed milk powder. After washing three times with 300 μL per well of PBS containing 0.1% (v/v) Tween 20, plates were incubated with serial dilutions of biotinylated dimeric or monomeric CD16A antigen in PBS containing 0.3% (w/v) skimmed milk powder for 1.5 h at room temperature. After washing, plates were incubated with the detection conjugate Streptavidin HRP, 1:10,000 diluted in PBS containing 0.3% (w/v) skimmed milk powder for 1 h followed by washing and incubation with tetramethylbenzidine substrate (Seramun) for 1-2 min. Reaction was stopped by addition of 0.5 M H₂SO₄ (100 μL/well). Absorbance was measured at 450 nm using a multiwell plate reader, plotted and EC₅₀ values were determined by fitting a nonlinear regression model to sigmoidal dose-response curves (four parameters logistic fit) using GraphPad Prism software.\n(§2) Concentration dependent binding of antibody constructs to coated recombinant CD16A antigen, or of soluble monomeric or dimeric CD16 antigen variants to coated or target antigen captured antibody constructs was analyzed in ELISA. Half maximal binding concentrations (EC₅₀) were determined by fitting a nonlinear regression model to sigmoidal dose-response curves (four parameters logistic fit) using GraphPad Prism software."}, "[2]": {"target": "T2, biotinylated monomeric CD16A antigen (human, UniProt P08637 17-208, limits assumed, biotinylated (site not stated))", "T2 construct": "Soluble antigen; also called soluble CD16A antigen", "T2 sequence (P08637 17-208 limits assumed)": "as above", "test": "ELISA, biotinylated monomeric CD16A titrated on coated construct", "method": "as §1, §2"}, "[3]": {"target": "T3, His-tagged human BCMA extracellular domain (human, UniProt Q02223 1-54)", "T3 construct": "extracellular domain; Coated at 0.4 ug/mL to capture the BCMA-targeting constructs; not shown: His tag", "T3 sequence (looked up)": "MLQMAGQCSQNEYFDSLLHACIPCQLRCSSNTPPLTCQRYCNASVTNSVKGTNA", "test": "ELISA, construct captured on coated His-tagged human BCMA extracellular domain"}, "[4]": {"target": "T4, recombinant CD16A 158F fused to monomeric human Fc (human, UniProt P08637 17-208)", "T4 construct": "also called recombinant CD16 antigen variant; not shown: monomeric human Fc", "T4 sequence (P08637 17-208)": "as the sequence (P08637 17-208 limits assumed) above", "test": "ELISA, construct titrated on coated CD16A 158F fused to monomeric human Fc", "method": "To assess binding of EGFR/CD16 or BCMA/CD16 antibodies to coated antigen in ELISA, 96-well ELISA plates (Immuno Maxisorp, Nunc) were coated overnight at 4° C. with recombinant CD16 antigen variants fused to monomeric human Fc at a concentration of 1.5 μg/mL in 100 mM carbonate-bicarbonate buffer. After blocking with 3% (w/v) skimmed milk powder dissolved in phosphate buffered saline (PBS) serial dilutions of bispecific antibody constructs were incubated on the antigen coated plates for 1.5 h at room temperature. […] After washing, plates were incubated with tetramethylbenzidine substrate (Seramun) for 1-2 min. Reaction was stopped by addition of 0.5 M H₂SO₄ (100 μL/well). Absorbance was measured at 450 nm using a multiwell plate reader, plotted and EC₅₀ values were determined by fitting a nonlinear regression model to sigmoidal dose-response curves (four parameters logistic fit) using GraphPad Prism software.\nas §2"}, "[5]": {"target": "recombinant CD16A 158V fused to monomeric human Fc (human, UniProt P08637 17-208)", "sequence (P08637 17-208 F176V)": "as the sequence (P08637 17-208 limits assumed) above, with F160V counted along it", "test": "ELISA, construct titrated on coated CD16A 158V fused to monomeric human Fc"}, "[6]": {"target": "T1, biotinylated dimeric CD16A antigen", "test": "ELISA, biotinylated dimeric CD16A titrated on construct captured by coated His-tagged human BCMA extracellular domain", "method": "as §1, §2"}, "[7]": {"target": "T2, biotinylated monomeric CD16A antigen", "test": "ELISA, biotinylated monomeric CD16A titrated on construct captured by coated His-tagged human BCMA extracellular domain", "method": "as §1, §2"}, "[8]": {"target": "T5, His-tagged human EGFR extracellular domain (human, UniProt P00533 25-645)", "T5 construct": "extracellular domain; Coated at 3.0 ug/mL to capture the EGFR-targeting constructs; not shown: His tag", "test": "ELISA, construct captured on coated His-tagged human EGFR extracellular domain"}, "[9]": {"target": "T1, biotinylated dimeric CD16A antigen", "test": "ELISA, biotinylated dimeric CD16A titrated on construct captured by coated His-tagged human EGFR extracellular domain", "method": "as §1, §2"}, "[10]": {"target": "T2, biotinylated monomeric CD16A antigen", "test": "ELISA, biotinylated monomeric CD16A titrated on construct captured by coated His-tagged human EGFR extracellular domain", "method": "as §1, §2"}}, "data": [{"binder": "B1", "values": [{"measurement": "EC50", "setting": "[1]", "value": 2.31, "unit": "nM"}, {"measurement": "EC50", "setting": "[2]", "value": 13.1, "unit": "nM"}, {"measurement": "binding result", "setting": "[3]", "value": "binds"}, {"measurement": "EC50", "setting": "[4]", "value": 0.54, "unit": "nM"}, {"measurement": "EC50", "setting": "[5]", "value": 0.31, "unit": "nM"}, {"measurement": "EC50", "setting": "[6]", "value": 0.74, "unit": "nM"}, {"measurement": "EC50", "setting": "[7]", "value": 1.98, "unit": "nM"}]}, {"binder": "B2", "values": [{"measurement": "EC50", "setting": "[1]", "value": 0.89, "unit": "nM"}, {"measurement": "EC50", "setting": "[2]", "value": 2, "unit": "nM"}, {"measurement": "binding result", "setting": "[8]", "value": "binds"}, {"measurement": "EC50", "setting": "[4]", "value": 0.18, "unit": "nM"}, {"measurement": "EC50", "setting": "[5]", "value": 0.16, "unit": "nM"}, {"measurement": "EC50", "setting": "[9]", "value": 0.76, "unit": "nM"}, {"measurement": "EC50", "setting": "[10]", "value": 1.62, "unit": "nM"}]}]}
